# Reference: PMC10318897, “The structure of Leptospira interrogans GAPDH sheds light into an immunoevasion factor that can target the anaphylatoxin C5a of innate immunity” (Frontiers in Immunology, 2023)
# Legend:
# O=C[C@H](O)COP(=O)(O)O = assay: purified protein; details: 2 mM NAD+, 5 mM phosphate, 40 mM Tris-HCl pH 8.5, 2 mM EDTA, 25 °C, fit with substrate inhibition
# [1] = test system: NC(=O)c1ccc[n+]([C@@H]2O[C@H](COP(=O)(O)OP(=O)(O)OC[C@H]3O[C@@H](n4cnc5c(N)ncnc54)[C@H](O)[C@@H]3O)[C@@H](O)[C@H]2O)c1; assay: purified protein; details: 2 mM G3P, 5 mM phosphate, 40 mM Tris-HCl pH 8.5, 2 mM EDTA, 25 °C
substance,measurement,setting,value
LiGAPDH (Leptospira interrogans serovar Copenhageni str. Fiocruz L1-130),Km,O=C[C@H](O)COP(=O)(O)O,600 ± 100 µM
same,kcat,O=C[C@H](O)COP(=O)(O)O,70 ± 7 s⁻¹
same,kcat/Km,O=C[C@H](O)COP(=O)(O)O,121000 ± 24000 M⁻¹ s⁻¹
same,Km,[1],81 ± 6 µM
same,kcat,[1],44.2 ± 0.9 s⁻¹
same,kcat/Km,[1],543000 ± 44000 M⁻¹ s⁻¹
